Reference: patent US20140348819A1, “Methods of Treating Cancer” (Dana-Farber Cancer Institute, Inc., priority 2011, published 2014)

Test system: six V600E BRAF melanoma cell lines
Assay: Screening of recombinant RTK ligands for ability to confer resistance to BRAFi (PLX4720) or MEKi (PD184352) (Table 4)
Type: cell-based, human
Parameters: ability of recombinant RTK ligand to confer resistance / ability of recombinant RTK ligand to confer resistance (screening value): scale not given here
Procedure: HGF is the only one that can substantially confer drug resistance to the cell lines.
The complexity of the tumor microenvironment is much greater than an in vitro co-culture system. Therefore, the inventors explored whether the activation of other RTKs could result in a similar resistance as that observed with the activation of MET. To this end, six V600E BRAF melanoma cell lines were tested for their resistance to either BRAFi (PLX4720) or MEKi (PD184352) after the addition of 22 RTK ligands that have the potential of activating almost all known RTKs. […] The activation of a selected subset of these RTKs was confirmed by western blotting and by high throughput tyrosine kinase phosphorylation profiling.

B1: VEGF-C (protein, UniProt P49767 112-227, looked up)
Vascular endothelial growth …: AHYNTEILKSIDNEWRKTQCMPREVCIDVGKEFGVATNTFFKPPCVSVYRCGGCCNSEGLQCMNTSTSYLSKTLFEITVPLSQGPKPVTISFANHTSCRCMSKLDVYRQVHSIIRR
For B1, the “ability of recombinant RTK ligand to confer resistance” value (“ability of recombinant RTK ligand” for short) (A2058, PD184352 - 1 uM, ligand 1.6 ng/ml) was 1.01, the “ability of recombinant RTK ligand” value (A2058, PD184352 - 1 uM, ligand 6.25 ng/ml) was 1.02 and the “ability of recombinant RTK ligand” value (A2058, PD184352 - 1 uM, ligand 25 ng/ml) was 1.01. The “ability of recombinant RTK ligand” value (A2058, PD184352 - 1 uM, ligand 100 ng/ml) was 0.99, the “ability of recombinant RTK ligand” value (A2058, PD184352 - 1 uM, ligand 400 ng/ml) was 0.94 and the “ability of recombinant RTK ligand” value (A2058, PLX4720 - 2 uM, ligand 1.6 ng/ml) was 1.03. For the same molecule, the “ability of recombinant RTK ligand” value (A2058, PLX4720 - 2 uM, ligand 6.25 ng/ml) was 1.04, the “ability of recombinant RTK ligand” value (A2058, PLX4720 - 2 uM, ligand 25 ng/ml) was 1.05 and the “ability of recombinant RTK ligand” value (A2058, PLX4720 - 2 uM, ligand 100 ng/ml) was 1.04. For the same molecule, the “ability of recombinant RTK ligand” value (A2058, PLX4720 - 2 uM, ligand 400 ng/ml) was 1.02, the “ability of recombinant RTK ligand” value (C32, PD184352 - 1 uM, ligand 1.6 ng/ml) was 1.06 and the “ability of recombinant RTK ligand” value (C32, PD184352 - 1 uM, ligand 6.25 ng/ml) was 1.03. The “ability of recombinant RTK ligand” value (C32, PD184352 - 1 uM, ligand 25 ng/ml) was 1.16, the “ability of recombinant RTK ligand” value (C32, PD184352 - 1 uM, ligand 100 ng/ml) was 1.00 and the “ability of recombinant RTK ligand” value (C32, PD184352 - 1 uM, ligand 400 ng/ml) was 1.07. The “ability of recombinant RTK ligand” value (C32, PLX4720 - 2 uM, ligand 1.6 ng/ml) was 0.94, the “ability of recombinant RTK ligand” value (C32, PLX4720 - 2 uM, ligand 6.25 ng/ml) was 1.09 and the “ability of recombinant RTK ligand” value (C32, PLX4720 - 2 uM, ligand 25 ng/ml) was 1.06. The “ability of recombinant RTK ligand” value (C32, PLX4720 - 2 uM, ligand 100 ng/ml) was 1.08, the “ability of recombinant RTK ligand” value (C32, PLX4720 - 2 uM, ligand 400 ng/ml) was 1.08 and the “ability of recombinant RTK ligand” value (Colo 829, PD184352 - 1 uM, ligand 1.6 ng/ml) was 0.97. For the same molecule, the “ability of recombinant RTK ligand” value (Colo 829, PD184352 - 1 uM, ligand 6.25 ng/ml) was 1.02, the “ability of recombinant RTK ligand” value (Colo 829, PD184352 - 1 uM, ligand 25 ng/ml) was 0.94 and the “ability of recombinant RTK ligand” value (Colo 829, PD184352 - 1 uM, ligand 100 ng/ml) was 0.95. For the same molecule, the “ability of recombinant RTK ligand” value (Colo 829, PD184352 - 1 uM, ligand 400 ng/ml) was 0.90, the “ability of recombinant RTK ligand” value (Colo 829, PLX4720 - 2 uM, ligand 1.6 ng/ml) was 0.99 and the “ability of recombinant RTK ligand” value (Colo 829, PLX4720 - 2 uM, ligand 6.25 ng/ml) was 1.00. The “ability of recombinant RTK ligand” value (Colo 829, PLX4720 - 2 uM, ligand 25 ng/ml) was 0.92, the “ability of recombinant RTK ligand” value (Colo 829, PLX4720 - 2 uM, ligand 100 ng/ml) was 0.95 and the “ability of recombinant RTK ligand” value (Colo 829, PLX4720 - 2 uM, ligand 400 ng/ml) was 0.90. The “ability of recombinant RTK ligand” value (G-361, PD184352 - 1 uM, ligand 1.6 ng/ml) was 0.97, the “ability of recombinant RTK ligand” value (G-361, PD184352 - 1 uM, ligand 6.25 ng/ml) was 0.97 and the “ability of recombinant RTK ligand” value (G-361, PD184352 - 1 uM, ligand 25 ng/ml) was 0.91. For the same molecule, the “ability of recombinant RTK ligand” value (G-361, PD184352 - 1 uM, ligand 100 ng/ml) was 0.90, the “ability of recombinant RTK ligand” value (G-361, PD184352 - 1 uM, ligand 400 ng/ml) was 0.89 and the “ability of recombinant RTK ligand” value (G-361, PLX4720 - 2 uM, ligand 1.6 ng/ml) was 1.01. For the same molecule, the “ability of recombinant RTK ligand” value (G-361, PLX4720 - 2 uM, ligand 6.25 ng/ml) was 0.97, the “ability of recombinant RTK ligand” value (G-361, PLX4720 - 2 uM, ligand 25 ng/ml) was 0.92 and the “ability of recombinant RTK ligand” value (G-361, PLX4720 - 2 uM, ligand 100 ng/ml) was 0.88. For the same molecule, the “ability of recombinant RTK ligand” value (G-361, PLX4720 - 2 uM, ligand 400 ng/ml) was 0.85, the “ability of recombinant RTK ligand” value (SK-MEL-5, PD184352 - 1 uM, ligand 1.6 ng/ml) was 0.97 and the “ability of recombinant RTK ligand” value (SK-MEL-5, PD184352 - 1 uM, ligand 6.25 ng/ml) was 0.36. For the same molecule, the “ability of recombinant RTK ligand” value (SK-MEL-5, PD184352 - 1 uM, ligand 25 ng/ml) was 0.96, the “ability of recombinant RTK ligand” value (SK-MEL-5, PD184352 - 1 uM, ligand 100 ng/ml) was 0.98 and the “ability of recombinant RTK ligand” value (SK-MEL-5, PD184352 - 1 uM, ligand 400 ng/ml) was 0.33. The “ability of recombinant RTK ligand” value (SK-MEL-5, PLX4720 - 2 uM, ligand 1.6 ng/ml) was 0.95, the “ability of recombinant RTK ligand” value (SK-MEL-5, PLX4720 - 2 uM, ligand 6.25 ng/ml) was 0.83 and the “ability of recombinant RTK ligand” value (SK-MEL-5, PLX4720 - 2 uM, ligand 25 ng/ml) was 0.87. The “ability of recombinant RTK ligand” value (SK-MEL-5, PLX4720 - 2 uM, ligand 100 ng/ml) was 0.92, the “ability of recombinant RTK ligand” value (SK-MEL-5, PLX4720 - 2 uM, ligand 400 ng/ml) was 0.85 and the “ability of recombinant RTK ligand” value (SK-MEL-28, PD184352 - 1 uM, ligand 1.6 ng/ml) was 1.09. For the same molecule, the “ability of recombinant RTK ligand” value (SK-MEL-28, PD184352 - 1 uM, ligand 6.25 ng/ml) was 0.95, the “ability of recombinant RTK ligand” value (SK-MEL-28, PD184352 - 1 uM, ligand 25 ng/ml) was 0.90 and the “ability of recombinant RTK ligand” value (SK-MEL-28, PD184352 - 1 uM, ligand 100 ng/ml) was 1.08. The “ability of recombinant RTK ligand” value (SK-MEL-28, PD184352 - 1 uM, ligand 400 ng/ml) was 0.85, the “ability of recombinant RTK ligand” value (SK-MEL-28, PLX4720 - 2 uM, ligand 1.6 ng/ml) was 1.05 and the “ability of recombinant RTK ligand” value (SK-MEL-28, PLX4720 - 2 uM, ligand 6.25 ng/ml) was 0.94. For the same molecule, the “ability of recombinant RTK ligand” value (SK-MEL-28, PLX4720 - 2 uM, ligand 25 ng/ml) was 0.98, the “ability of recombinant RTK ligand” value (SK-MEL-28, PLX4720 - 2 uM, ligand 100 ng/ml) was 1.01 and the “ability of recombinant RTK ligand” value (SK-MEL-28, PLX4720 - 2 uM, ligand 400 ng/ml) was 0.89.
